Here are results for one substance from paper PMC5704366.

For this assay, the target named is mononucleosome assembled with an octamer lacking the H4 tail (human) (UniProt P0C0S8). Briefly: pull-down.

In the case of “HIV-1 integrase, wild type (from UniProt P12497 1148-1435) (enzyme)”, the percent less efficient binding than to native MN is 50 to 60%.
